Seven molecules from patent publication US20230220042A1 (SHANGHAI JIAO TONG UNIVERSITY SCHOOL OF MEDICINE, published 2023) can be followed below.

B1: anti-human OX40 IgG2 antibody Mut_22 (V266L/S267M/H268E/P271Q) (antibody, name in EU numbering)
heavy: QVQLQESGPGLVKPSGTLSLTCAVSGGSISSSIWWSWVRQPPGKGLEWIGEIHHSGNTNCNPSLKSRVTISIDKSKNQFSLKLTSVTAADTAVYYCARAGTGTTLDYWGQGTLVTVSSASTKGPSVFPLAPCSRSTSESTAALGCLVKDYFPEPVTVSWNSGALTSGVHTFPAVLQSSGLYSLSSVVTVPSSNFGTQTYTCNVDHKPSNTKVDKTVERKCCVECPPCPAPPVAGPSVFLFPPKPKDTLMISRTPEVTCVVVDLMEEDQEVQFNWYVDGVEVHNAKTKPREEQFNSTFRVVSVLTVVHQDWLNGKEYKCKVSNKGLPAPIEKTISKTKGQPREPQVYTLPPSREEMTKNQVSLTCLVKGFYPSDIAVEWESNGQPENNYKTTPPMLDSDGSFFLYSKLTVDKSRWQQGNVFSCSVMHEALHNHYTQKSLSLSPGK
light: EIVLTQSPGTLSLSPGERATLSCRASQSVSGDYLAWYQQKLGQAPRLLIYGASIRATGIPDRFSGSGSGTDFTLTISKLEPEDFAVYYCQQYGSSPLTFGGGTKVEIKRTVAAPSVFIFPPSDEQLKSGTASVVCLLNNFYPREAKVQWKVDNALQSGNSQESVTEQDSKDSTYSLSSTLTLSKADYEKHKVYACEVTHQGLSSPVTKSFNRGEC
notes: Substitutions in Eu numbering; entries include an unstated signal peptide
B2: anti-human OX40 IgG2 antibody Mut_30 (V234Q/V266L/S267E/H268S/E269V) (antibody)
heavy: B1 heavy with V232Q, M264E, E265S, E266V, Q268P
light: B1 light
notes: as for B1
B3: anti-human OX40 IgG2 antibody Mut_25 (V234Q/V266L/S267D/H268D/E269D/P271Q) (antibody)
heavy: B1 heavy with V232Q, M264D, E265D, E266D
light: B1 light
notes: as for B1
B4: anti-human OX40 IgG2 antibody Mut_23 (V266L/S267E/E269K/P271G) (antibody, name in EU numbering)
heavy: B1 heavy with M264E, E265H, E266K, Q268G
light: B1 light
notes: as for B1
B5: anti-human OX40 IgG2 antibody Mut_24 (V266L/S267E/H268S/E269G/P271T) (antibody, name in EU numbering)
heavy: B1 heavy with M264E, E265S, E266G, Q268T
light: B1 light
notes: as for B1
B6: anti-human OX40 IgG2 antibody Mut_27 (V266L/S267E/H268S/P271V) (antibody, name in EU numbering)
heavy: B1 heavy with M264E, E265S, Q268V
light: B1 light
notes: as for B1
B7: anti-human OX40 IgG2 antibody Mut_28 (P233G/S267E/S298G) (antibody)
heavy: B1 heavy with P231G, L263V, M264E, E265H, Q268P, S295G
light: B1 light
notes: as for B1

Positions count from the first letter of the chain named. Names may count otherwise.

T6 sequence (P08637 17-208 F176V): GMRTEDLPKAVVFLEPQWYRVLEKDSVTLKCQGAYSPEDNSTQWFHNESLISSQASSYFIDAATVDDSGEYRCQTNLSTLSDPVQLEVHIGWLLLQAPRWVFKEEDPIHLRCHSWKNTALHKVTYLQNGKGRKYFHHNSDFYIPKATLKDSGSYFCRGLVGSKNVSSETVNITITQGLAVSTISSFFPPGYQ
T1 sequence (P12314 16-292): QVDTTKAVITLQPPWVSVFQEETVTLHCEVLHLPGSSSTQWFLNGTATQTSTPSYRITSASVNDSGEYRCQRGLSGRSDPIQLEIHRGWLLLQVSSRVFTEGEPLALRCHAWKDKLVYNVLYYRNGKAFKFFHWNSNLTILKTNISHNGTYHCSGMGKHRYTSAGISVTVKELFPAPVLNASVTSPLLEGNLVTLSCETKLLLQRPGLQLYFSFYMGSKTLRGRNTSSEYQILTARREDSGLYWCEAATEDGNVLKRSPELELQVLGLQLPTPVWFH

One test concerns the target T1, FcγRI (human, UniProt P12314 16-292, biotin-labeled).
T1 construct: extracellular domain; Bought protein; also called CD64
Kind of test: ELISA, coated antibody, biotin-FcγR.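 On Absorbance value: antibody coated at 2 µg/mL at 100 µL per well.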 A general note: In an ELISA, binding on a coated surface is turned into a signal by an enzyme label.
As for B1, the Absorbance value was found to be 0.12 A650 and the “Relative binding affinity RI/G1” value came out at 0.05 ratio.
B2: the Absorbance value came out at 0.12 A650 and the “Relative binding affinity RI/G1” value is 0.05 ratio.
Turning to B3, the Absorbance value turned out to be 0.12 A650 and the “Relative binding affinity RI/G1” value was 0.05 ratio.
In the case of B4, the Absorbance value came out at 0.11 A650 and the “Relative binding affinity RI/G1” value came to 0.04 ratio.
For B5, the Absorbance value turned out to be 0.12 A650 and the “Relative binding affinity RI/G1” value was found to be 0.05 ratio.
B6: the Absorbance value turned out to be 0.18 A650 and the “Relative binding affinity RI/G1” value turned out to be 0.07 ratio.
Taken in the same sequence, the figures for B7 were 0.13 A650 and 0.05 ratio.

In the next test the target is T2, FcγRIIA^131H (human, UniProt P12318 34-217, biotin-labeled).
T2 construct: extracellular domain; Bought protein; also called RIIAH
T2 sequence (looked up): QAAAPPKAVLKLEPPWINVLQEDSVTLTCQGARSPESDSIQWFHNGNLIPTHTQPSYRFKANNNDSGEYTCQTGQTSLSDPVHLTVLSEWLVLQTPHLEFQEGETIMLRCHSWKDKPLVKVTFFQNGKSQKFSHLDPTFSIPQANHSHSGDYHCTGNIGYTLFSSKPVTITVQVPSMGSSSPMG
Kind of test: ELISA, coated antibody, biotin-FcγR.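 On Absorbance value: antibody coated at 2 µg/mL at 100 µL per well.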
Turning to B1, the Absorbance value was 0.33 A650 and the “Relative binding affinity RIIAH/G1” value was determined as 0.57 ratio.
Taken in the same sequence, the figures for B2 were 0.18 A650 and 0.32 ratio.
For the molecule B3, the Absorbance value was found to be 0.06 A650 and the “Relative binding affinity RIIAH/G1” value was found to be 0.1 ratio.
Regarding B4, the Absorbance value stood at 0.43 A650 and the “Relative binding affinity RIIAH/G1” value was determined as 0.75 ratio.
Taken in the same sequence, the figures for B5 were 0.48 A650 and 0.84 ratio.
Take B6: the Absorbance value is 0.48 A650 and the “Relative binding affinity RIIAH/G1” value turned out to be 0.84 ratio.
As for B7, the Absorbance value worked out at 0.14 A650 and the “Relative binding affinity RIIAH/G1” value is 0.24 ratio.

In a further test the target is T3, FcγRIIA^131R (human, UniProt P12318 34-217, biotin-labeled).
T3 construct: extracellular domain; Bought protein; also called RIIAR
T3 sequence (looked up): T2 sequence (looked up) with H134R
In words: ELISA, coated antibody, biotin-FcγR.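 On Absorbance value: antibody coated at 2 µg/mL at 100 µL per well.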
For B1, the Absorbance value amounted to 0.31 A650 and the “Relative binding affinity RIIAR/G1” value is 1.17 ratio.
Take B2: the Absorbance value worked out at 0.26 A650 and the “Relative binding affinity RIIAR/G1” value came out at 1.01 ratio.
As for B3, the Absorbance value came to 0.3 A650 and the “Relative binding affinity RIIAR/G1” value was 1.13 ratio.
Taken in the same sequence, the figures for B4 were 0.38 A650 and 1.44 ratio.
In the same order, the values of B5 are 0.35 A650 and 1.35 ratio.
Taken in the same sequence, the figures for B6 were 0.28 A650 and 1.06 ratio.
As for B7, the Absorbance value amounted to 0.35 A650 and the “Relative binding affinity RIIAR/G1” value stood at 1.35 ratio.

In a further test the target is T4, FcγRIIB (human, UniProt P31994 43-217, biotin-labeled).
T4 construct: extracellular domain; Bought protein; also called CD32b
T4 sequence (looked up): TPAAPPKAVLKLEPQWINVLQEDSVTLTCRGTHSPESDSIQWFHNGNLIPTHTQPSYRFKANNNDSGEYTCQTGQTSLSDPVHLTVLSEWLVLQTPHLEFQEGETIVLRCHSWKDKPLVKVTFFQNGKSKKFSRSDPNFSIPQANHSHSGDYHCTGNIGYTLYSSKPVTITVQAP
In words: ELISA, coated antibody, biotin-FcγR.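 On Absorbance value: antibody coated at 2 µg/mL at 100 µL per well.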
As for B1, the Absorbance value came out at 0.93 A650, the “Increased factor of RIIB binding compared with wild-type IgG2” value (shortened to “Increased factor of RIIB binding”) came out at 12.3 fold and the “Relative binding affinity RIIB/G1” value came out at 1.22 ratio.
Turning to B2, the Absorbance value stood at 0.8 A650, the “Increased factor of RIIB binding” value was 10.7 fold and the “Relative binding affinity RIIB/G1” value amounted to 1.06 ratio.
As to B3, the Absorbance value was 0.86 A650, the “Increased factor of RIIB binding” value came out at 11.5 fold and the “Relative binding affinity RIIB/G1” value is 1.14 ratio.
As to B4, the Absorbance value is 0.97 A650, the “Increased factor of RIIB binding” value was 13 fold and the “Relative binding affinity RIIB/G1” value came to 1.29 ratio.
B5: the Absorbance value was 1 A650, the “Increased factor of RIIB binding” value was found to be 13.3 fold and the “Relative binding affinity RIIB/G1” value was found to be 1.32 ratio.
Turning to B6, the Absorbance value was 0.7 A650, the “Increased factor of RIIB binding” value turned out to be 9.29 fold and the “Relative binding affinity RIIB/G1” value came out at 0.92 ratio.
Turning to B7, the Absorbance value came out at 0.88 A650, the “Increased factor of RIIB binding” value is 11.8 fold and the “Relative binding affinity RIIB/G1” value turned out to be 1.17 ratio.

For a further test, the target named is T5, FcγRIIIA^158F (human, UniProt P08637 17-208, biotin-labeled).
T5 construct: extracellular domain; Bought protein; also called RIIIAF
T5 sequence (P08637 17-208): as the sequence (P08637 17-208 F176V) above, with V160F counted along it
Kind of test: ELISA, coated antibody, biotin-FcγR.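 On Absorbance value: antibody coated at 2 µg/mL at 100 µL per well.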
As to B1, the Absorbance value stood at 0.06 A650 and the “Relative binding affinity RIIIAF/G1” value was 0.33 ratio.
In the case of B2, the Absorbance value stood at 0.06 A650 and the “Relative binding affinity RIIIAF/G1” value amounted to 0.33 ratio.
With B3, the Absorbance value turned out to be 0.07 A650 and the “Relative binding affinity RIIIAF/G1” value was determined as 0.36 ratio.
On to B4, for which the Absorbance value was 0.07 A650 and the “Relative binding affinity RIIIAF/G1” value is 0.35 ratio.
As for B5, the Absorbance value stood at 0.08 A650 and the “Relative binding affinity RIIIAF/G1” value was determined as 0.42 ratio.
With B6, the Absorbance value amounted to 0.09 A650 and the “Relative binding affinity RIIIAF/G1” value amounted to 0.49 ratio.
Regarding B7, the Absorbance value amounted to 0.08 A650 and the “Relative binding affinity RIIIAF/G1” value is 0.44 ratio.

The next test concerns the target T6, FcγRIIIA^158V (human, UniProt P08637 17-208, biotin-labeled).
T6 construct: extracellular domain; Bought protein; also called RIIIAV; CD16a 158V
Kind of test: ELISA, coated antibody, biotin-FcγR.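 On Absorbance value: antibody coated at 2 µg/mL at 100 µL per well.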
As to B1, the Absorbance value worked out at 0.07 A650 and the “Relative binding affinity RIIIAV/G1” value is 0.07 ratio.
In the case of B2, the Absorbance value is 0.06 A650 and the “Relative binding affinity RIIIAV/G1” value worked out at 0.07 ratio.
Taken in the same sequence, the figures for B3 were 0.05 A650 and 0.06 ratio.
Taken in the same sequence, the figures for B4 were 0.06 A650 and 0.06 ratio.
Take B5: the Absorbance value amounted to 0.08 A650 and the “Relative binding affinity RIIIAV/G1” value was 0.08 ratio.
On to B6, for which the Absorbance value stood at 0.1 A650 and the “Relative binding affinity RIIIAV/G1” value came to 0.11 ratio.
B7: the Absorbance value was determined as 0.08 A650 and the “Relative binding affinity RIIIAV/G1” value came out at 0.08 ratio.

For another test, the target named is T4, FcγRIIB. Kind of test: ELISA; relative affinity to FcγRIIB over that to FcγRIIA131R.
As to B1, the RIIB/RIIAR was determined as 1.05 ratio.
Take B2: the RIIB/RIIAR came out at 1.05 ratio.
In the case of B3, the RIIB/RIIAR came out at 1.01 ratio.
The same measure, in the same setting: then B4, with 0.9 ratio; and B5, with 0.98 ratio; and B6, with 0.87 ratio.
B7: the RIIB/RIIAR was 0.87 ratio.
